Test results published in the RNAGym collection of RNA variant scans (doi:10.7554/elife.80360).

B1: CPEB3 Ribozyme (parent)
chain: GGGGGCCACAGCAGAAGCGUUCACGUCGCGGCCCCUGUCAGAUUCUGGUGAAUCUGCGAAUUCUGCUGU

Variants of: B1
Experiment: self-cleavage, relative activity (ratio to wild type); higher = more cleavage; co-transcriptional

Row | Variant | self-cleavage
1 | A59U U61G | 0.512
2 | A59U U61C | 0.358
3 | A59U U61A | 0.443
4 | G58A U61C | 0.82
5 | G58A U61A | 0.827
6 | G58A U61G | 0.861
7 | G56U A59G | 0.909
8 | A59U C66U | 0.775
9 | G58U U61C | 0.892
10 | G58U U61G | 0.908
11 | A59G A60G | 0.533
12 | A59G A60U | 0.352
13 | C57G G65A | 0.37
14 | C57G G65U | 0.254
15 | C57G G65C | 0.428
16 | G56U C66A | 0.447
17 | G58U C63G | 1.01
18 | G58U C63U | 1.03
19 | A59C G65C | 0.374
20 | G56U U69A | 1
21 | G56U U69C | 1.04

Row | Variant | self-cleavage
22 | C57G G68C | 0.388
23 | C57G G68A | 0.374
24 | G56U U61A | 0.752
25 | G58C U64A | 0.955
26 | G58C U64C | 0.777
27 | A60C C63U | 0.468
28 | A60C C63G | 0.344
29 | A59C U69A | 0.813
30 | A59C U69G | 0.824
31 | A59C U69C | 0.934
32 | G58A C66U | 0.938
33 | G58A C66A | 0.81
34 | G58A C66G | 0.881
35 | G58A G65A | 0.901
36 | U61C U64C | 0.31
37 | U61C U64G | 0.474
38 | U61C U64A | 0.322
39 | C57U U69A | 0.478
40 | C57U U69G | 0.473
41 | A60U U61G | 0.556
42 | A60U U61C | 0.629

Row | Variant | self-cleavage
43 | U61A U67A | 0.903
44 | U61A U67G | 0.958
45 | U61A U67C | 0.896
46 | A59G U64C | 0.873
47 | A59G U64A | 0.861
48 | A60C U62G | 0.429
49 | C57U G68U | 0.416
50 | C57U G68A | 0.395
51 | G58C U62A | 0.918
52 | G58C U62C | 0.902
53 | G58A C63G | 0.757
54 | G58A C63U | 0.957
55 | C57A U64A | 0.357
56 | C57A U64C | 0.401
57 | U61C G65U | 0.292
58 | U61C G65C | 0.339
59 | C57A U69G | 0.455
60 | C57A U69A | 0.377
61 | G58C C63U | 0.997
62 | G58C C63G | 0.823
63 | G58C C63A | 0.906

Row | Variant | self-cleavage
64 | A60C G65C | 0.449
65 | A60C U67G | 0.37
66 | A60C U67A | 0.358
67 | A60C U67C | 0.313
68 | A59G U61C | 0.785
69 | G56C U69C | 1.02
70 | G56C U69G | 0.925
71 | G56C U69A | 0.874
72 | C57G A59G | 0.375
73 | C57G A59U | 0.388
74 | C57A U61C | 0.273
75 | U61A C63A | 0.729
76 | U61A C63U | 0.721
77 | U61C C66A | 0.375
78 | U61C C66U | 0.557
79 | U61C C66G | 0.396
80 | C57A G68U | 0.394
81 | C57A G68A | 0.367
82 | C57G U69C | 0.451
83 | A59C U62G | 0.423
84 | A59C U62C | 0.407
